Source: US20240352102A1
“And” between values parts separate entries of the source, which are not always exact repeats. Equal entries are not always repeated.

Assays:
Assay in all cases: peptide microarray
[1] = molecular target: T1, Peptide_051
T1 sequence (peptide): RTPPKSPSSAKSRLQ

[2] = molecular target: T2, Peptide_059
T2 sequence (peptide): STENLKHQPGGGKVQ

[3] = molecular target: T3, Peptide_060
T3 sequence (peptide): LKHQPGGGKVQIINK

[4] = molecular target: T4, Peptide_061
T4 sequence (peptide): PGGGKVQIINKKLDL

fluorescence intensity [1]: 151 and 83.3
fluorescence intensity [2]: 204 and 126
fluorescence intensity [3]: 793 and 655
fluorescence intensity [4]: 157 and 114
B1: mAb TRC35 (antibody, V domains shown)
VH: QVQLQQPGTELVKPGASVKLSCKASGYTFTSYWLQWVKQRPGQGLEWIGEIDPSDSYTNYNQKFKGKATLTVDTSSSTAYMQLSSLTSEDSAVYYCATLTGSWGQGTTLAVSS
VL: DVLLTQTPLSLPVSLGDQASISCRASQSIVDSNGNTFLEWYLQKSGQSPKVLIYKVSNRFSGVPDRFSGRGSGTDFTLKISRVEAEDLGVYYCFQGSHVPYTFGGGTKLEIK
